Measured values as given in publication PMC2606027 (2009).

B1: LEDGF IBD fused to Gal4 transcription activation domain (WT prey) [human] / Full-length HIV-1 IN fused to the DNA binding domain of Gal4 (WT bait) [HIV-1] (parent complex)
chain 1: SMDSRLQRIHAEIKNSLKIDNLDVNRCIEALDELASLQVTMQQAQKHTEMITTLKKIRRFKVSQVIMEKSTMLYNKFKNMFLV
chain 2: not shown

Variants of: B1
Assay: yeast two-hybrid (β-galactosidase reporter); S. cerevisiae Y187; quadruplicate measurements; read off a plot

| Variant | percent of parent |
| --- | --- |
| chain 1 D20N | ~1.2 % of WT/WT |
| chain 1 K55E, chain 1 K56S, chain 1 R59E | ~1.3 % of WT/WT |
| chain 1 K55E, chain 1 K56E, chain 1 R59E | ~1.4 % of WT/WT |

Variants of: B1
Assay: yeast two-hybrid (β-galactosidase reporter); S. cerevisiae Y187; quadruplicate measurements

| Variant | percent of parent |
| --- | --- |
| chain 1 K14E | 139 % of WT/WT |
| chain 1 K46E | 129 % of WT/WT |
